Source: publication PMC9482650, “Quantitative fragmentomics allow affinity mapping of interactomes” (Nature Communications, 2022)

T1: SHANK1, Q9Y566
T1 sequence (Q9Y566 658-767, limits assumed, looked up): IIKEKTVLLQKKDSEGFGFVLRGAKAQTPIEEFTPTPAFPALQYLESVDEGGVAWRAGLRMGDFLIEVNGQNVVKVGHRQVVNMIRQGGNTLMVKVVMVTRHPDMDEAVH

T2: MPP7, Q5T2T1
T2 sequence (Q5T2T1 134-230, limits assumed, looked up): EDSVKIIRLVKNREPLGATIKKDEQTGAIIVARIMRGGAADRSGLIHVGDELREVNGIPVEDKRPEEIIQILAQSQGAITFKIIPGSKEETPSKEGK

T3: TIAM2, Q8IVF5
T3 sequence (Q8IVF5 885-986, limits assumed, looked up): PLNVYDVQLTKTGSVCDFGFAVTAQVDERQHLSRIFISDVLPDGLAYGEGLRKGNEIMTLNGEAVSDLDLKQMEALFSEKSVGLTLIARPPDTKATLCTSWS

T4: ARHGAP21, Q5T5U3
T4 sequence (Q5T5U3 45-169, limits assumed, looked up): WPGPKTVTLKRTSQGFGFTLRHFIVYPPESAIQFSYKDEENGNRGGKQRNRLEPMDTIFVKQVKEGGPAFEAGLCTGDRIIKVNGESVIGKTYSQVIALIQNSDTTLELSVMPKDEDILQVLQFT

T5: DLG3_1, Q92796
T5 sequence (Q92796 125-227, limits assumed, looked up): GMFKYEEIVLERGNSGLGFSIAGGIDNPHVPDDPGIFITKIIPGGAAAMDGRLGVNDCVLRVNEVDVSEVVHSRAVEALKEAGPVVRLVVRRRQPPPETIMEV

T6: DLG3_3, Q92796
T6 sequence (Q92796 374-475, limits assumed, looked up): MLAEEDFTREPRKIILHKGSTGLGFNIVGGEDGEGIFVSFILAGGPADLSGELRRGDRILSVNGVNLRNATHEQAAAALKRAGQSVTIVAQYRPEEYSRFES

T7: DFNB31_1, Q9P202
T7 sequence (Q9P202 135-233, limits assumed, looked up): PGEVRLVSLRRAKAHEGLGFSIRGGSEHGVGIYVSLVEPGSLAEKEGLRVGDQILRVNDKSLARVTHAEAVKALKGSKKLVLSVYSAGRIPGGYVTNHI

T8: RHPN1, Q8TCX5
T8 sequence (Q8TCX5 508-602, limits assumed, looked up): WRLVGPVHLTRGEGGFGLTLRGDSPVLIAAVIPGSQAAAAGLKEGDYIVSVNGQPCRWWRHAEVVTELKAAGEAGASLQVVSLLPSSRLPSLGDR

T9: LIN7B, Q9HAP6
T9 sequence (Q9HAP6 88-185, limits assumed, looked up): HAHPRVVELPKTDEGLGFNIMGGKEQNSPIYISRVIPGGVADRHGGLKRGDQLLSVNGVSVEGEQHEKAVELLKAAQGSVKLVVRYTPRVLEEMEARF

T10: PDZRN3_1, Q9UPQ7
T10 sequence (Q9UPQ7 244-349, limits assumed, looked up): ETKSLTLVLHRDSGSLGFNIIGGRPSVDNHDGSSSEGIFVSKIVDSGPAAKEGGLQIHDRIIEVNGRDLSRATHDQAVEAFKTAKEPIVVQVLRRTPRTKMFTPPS

T11: PDZD7_3, Q9H5P4
T11 sequence (Q9H5P4 857-944, limits assumed, looked up): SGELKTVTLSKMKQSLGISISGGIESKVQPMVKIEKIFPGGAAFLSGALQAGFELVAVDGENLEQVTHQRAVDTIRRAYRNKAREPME

T12: MPDZ_12, O75970
T12 sequence (O75970 1857-1958, limits assumed, looked up): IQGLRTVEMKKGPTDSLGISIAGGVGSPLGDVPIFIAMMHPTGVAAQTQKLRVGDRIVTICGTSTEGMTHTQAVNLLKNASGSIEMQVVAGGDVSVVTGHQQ


What was measured:
Assay in all cases: holdup assay
Parameters in all cases: key: below the threshold = too weak to quantify, mostly under pKd 3.1 to 4
Settings in all cases: plain residues with an end cap or a label only (N-terminal biotin on a linker: ado-ado)
[1] = target: T1, SHANK1, Q9Y566
[2] = target: MAGI2_4, Q86UL8
[3] = target: LDB3, O75112
[4] = target: T2, MPP7, Q5T2T1
[5] = target: T3, TIAM2, Q8IVF5
[6] = target: T4, ARHGAP21, Q5T5U3
[7] = target: T5, DLG3_1, Q92796
[8] = target: T6, DLG3_3, Q92796
[9] = target: T7, DFNB31_1, Q9P202
[10] = target: MAST1, Q9Y2H9
[11] = target: PARD3_3, Q8TEW0
[12] = target: T8, RHPN1, Q8TCX5
[13] = target: T9, LIN7B, Q9HAP6
[14] = target: T10, PDZRN3_1, Q9UPQ7
[15] = target: DLG1_1, Q12959
[16] = target: LNX1_1, Q8TBB1
[17] = target: T11, PDZD7_3, Q9H5P4
[18] = target: GOPC, Q9HD26
[19] = target: PTPN3, P26045
[20] = target: SCRIB_3, Q14160
[21] = target: T12, MPDZ_12, O75970
[22] = target: SCRIB_2, Q14160
[23] = target: ARHGEF12, Q9NZN5-2
[24] = target: HTRA2, O43464
[25] = target: IL16_1, Q14005
Sequence of IL16_1, Q14005 (Q14005 210-306): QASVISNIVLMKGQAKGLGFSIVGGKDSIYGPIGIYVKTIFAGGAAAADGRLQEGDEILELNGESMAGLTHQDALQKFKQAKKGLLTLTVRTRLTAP

Sequence of ARHGEF12, Q9NZN5-2 (Q9NZN5 other isoform, or with tags, fused parts or gaps): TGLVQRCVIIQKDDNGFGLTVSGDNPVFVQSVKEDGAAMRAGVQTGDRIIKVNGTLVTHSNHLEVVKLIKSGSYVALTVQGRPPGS
Sequence of MAGI2_4, Q86UL8 (Q86UL8 772-865): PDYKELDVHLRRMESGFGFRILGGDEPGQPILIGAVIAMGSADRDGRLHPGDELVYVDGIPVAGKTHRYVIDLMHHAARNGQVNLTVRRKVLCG
Sequence of PTPN3, P26045 (P26045 505-587): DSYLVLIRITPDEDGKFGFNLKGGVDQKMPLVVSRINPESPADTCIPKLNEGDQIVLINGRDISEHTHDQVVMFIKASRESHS
Sequence of LDB3, O75112 (O75112 1-94): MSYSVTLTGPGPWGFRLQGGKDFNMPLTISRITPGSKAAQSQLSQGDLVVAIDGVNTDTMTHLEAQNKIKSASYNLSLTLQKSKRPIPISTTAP
Sequence of LNX1_1, Q8TBB1 (Q8TBB1 261-371): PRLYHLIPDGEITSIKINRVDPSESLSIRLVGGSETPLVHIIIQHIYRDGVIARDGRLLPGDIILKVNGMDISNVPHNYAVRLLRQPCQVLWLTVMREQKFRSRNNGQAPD
Sequence of SCRIB_2, Q14160 (Q14160 857-960): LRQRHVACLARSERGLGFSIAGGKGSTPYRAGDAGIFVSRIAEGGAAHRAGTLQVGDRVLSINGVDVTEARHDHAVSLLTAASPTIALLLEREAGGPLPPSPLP
Sequence of SCRIB_3, Q14160 (Q14160 999-1103): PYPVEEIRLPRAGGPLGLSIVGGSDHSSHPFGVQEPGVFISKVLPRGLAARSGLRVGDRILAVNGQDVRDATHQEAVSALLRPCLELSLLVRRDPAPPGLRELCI
Sequence of HTRA2, O43464 (O43464 355-458): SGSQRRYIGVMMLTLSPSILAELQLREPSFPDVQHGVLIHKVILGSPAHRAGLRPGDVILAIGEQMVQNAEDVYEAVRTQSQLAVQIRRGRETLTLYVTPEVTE
Sequence of PARD3_3, Q8TEW0 (Q8TEW0 582-685): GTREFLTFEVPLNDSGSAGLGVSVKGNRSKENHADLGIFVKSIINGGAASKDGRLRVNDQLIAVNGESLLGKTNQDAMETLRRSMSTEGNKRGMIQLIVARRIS
Sequence of MAST1, Q9Y2H9 (Q9Y2H9 962-1065): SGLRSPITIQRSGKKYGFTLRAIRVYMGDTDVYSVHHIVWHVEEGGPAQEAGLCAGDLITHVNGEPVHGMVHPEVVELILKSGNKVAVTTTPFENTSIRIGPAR

| pKd [1] | pKd [2] | pKd [3] | pKd [4] | pKd [5] | pKd [6] | pKd [7] | pKd [8] | pKd [9] | pKd [10] | pKd [11] | pKd [12] | pKd [14] | pKd [15] | pKd [18] | pKd [20] | pKd [22] | pKd [23] | pKd [24] | pKd [25] | Binder | also measured |
| --- | --- | --- | --- | --- | --- | --- | --- | --- | --- | --- | --- | --- | --- | --- | --- | --- | --- | --- | --- | --- | --- |
| below the threshold | below the threshold | below the threshold | below the threshold | below the threshold | 3.54 | below the threshold | below the threshold | below the threshold | 4.17 | 3.48 | below the threshold | below the threshold | below the threshold | below the threshold | below the threshold | 3.64 | 3.61 | 3.48 | below the threshold | GDHLDRRVVL [VAC14, Q08AM6] | pKd [13]: below the threshold; pKd [16]: below the threshold; pKd [17]: 3.69; pKd [19]: 3.92; pKd [21]: 3.75 |
| 4.44 | 4.26 | below the threshold | below the threshold | below the threshold | 4.19 | 4.51 | 3.88 | 4.2 | 4.97 | 4.19 | 4.66 | 4.33 | 4.96 | 3.96 | 4.81 | 4.42 | 4.02 | below the threshold | 4.12 | QELLEYETTV [XKR7, Q5GH72] | pKd [13]: 4.5; pKd [16]: 4.57; pKd [17]: 4.85; pKd [19]: 4.85; pKd [21]: below the threshold |

More lines, now with the values behind:

| Binder | pKd [1] | pKd [2] | pKd [3] | pKd [4] | pKd [5] | pKd [6] | pKd [7] | pKd [8] | pKd [9] | pKd [10] | pKd [11] | pKd [12] | pKd [14] | pKd [15] | pKd [18] | pKd [20] | pKd [22] | pKd [23] | pKd [24] | pKd [25] | also measured |
| --- | --- | --- | --- | --- | --- | --- | --- | --- | --- | --- | --- | --- | --- | --- | --- | --- | --- | --- | --- | --- | --- |
| LRYARPADAL [PPP1R3G, B7ZBB8] | below the threshold | below the threshold | below the threshold | below the threshold | below the threshold | 3.9 | below the threshold | below the threshold | below the threshold | 3.73 | below the threshold | below the threshold | below the threshold | below the threshold | below the threshold | below the threshold | below the threshold | below the threshold | below the threshold | below the threshold | pKd [13]: below the threshold; pKd [16]: below the threshold; pKd [17]: below the threshold; pKd [19]: below the threshold; pKd [21]: below the threshold |
| SKSLERATQL [COMMD3, Q9UBI1] | 4.81 | 3.94 | below the threshold | below the threshold | 3.88 | below the threshold | 3.72 | 3.74 | 3.74 | 4.69 | below the threshold | 4.13 | 4.11 | 3.55 | 3.81 | 4.54 | 3.55 | 4.79 | below the threshold | below the threshold | pKd [13]: 3.87; pKd [16]: 3.87; pKd [17]: 4.23; pKd [19]: 4.91; pKd [21]: below the threshold |
| EYRKDNKVAA [LSM14A, Q8ND56;Q8ND56-2] |  | below the threshold | below the threshold | below the threshold | 4.1 |  |  | below the threshold | below the threshold | below the threshold | below the threshold | below the threshold | below the threshold | below the threshold | below the threshold | below the threshold | below the threshold | below the threshold | below the threshold | below the threshold | pKd [17]: below the threshold; pKd [19]: 3.95 |
| KSTTRSSSSC [NDE1, Q9NXR1;Q9NXR1-2] | below the threshold | below the threshold | below the threshold | below the threshold |  | below the threshold | below the threshold | below the threshold | below the threshold |  | below the threshold | below the threshold | below the threshold | below the threshold | below the threshold | below the threshold | below the threshold | 4.62 | below the threshold | below the threshold | pKd [16]: below the threshold; pKd [21]: below the threshold |
